Molecular target: T1, recombinant YFV E protein (soluble E, sE; YFV Asibi strain) (Yellow fever virus, Asibi strain, UniProt Q6DV88 286-678)
T1 construct: also called YFV E antigen; YFV E monomer
Test: BLI monovalent (IgG on tip)

T1 sequence (Q6DV88 286-678): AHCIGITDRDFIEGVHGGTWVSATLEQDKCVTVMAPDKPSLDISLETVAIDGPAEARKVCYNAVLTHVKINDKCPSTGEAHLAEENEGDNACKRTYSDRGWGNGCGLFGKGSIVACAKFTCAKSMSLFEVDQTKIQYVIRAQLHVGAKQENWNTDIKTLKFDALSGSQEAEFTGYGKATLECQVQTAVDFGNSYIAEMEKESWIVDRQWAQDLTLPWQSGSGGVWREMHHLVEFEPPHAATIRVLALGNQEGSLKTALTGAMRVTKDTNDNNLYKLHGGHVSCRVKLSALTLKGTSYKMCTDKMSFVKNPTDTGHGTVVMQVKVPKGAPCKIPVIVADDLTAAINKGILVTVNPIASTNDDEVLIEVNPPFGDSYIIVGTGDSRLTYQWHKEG

Binder | Kd
ADI-48950 (antibody, V domains shown, full-length IgG; also called Antibody Number 142) VH: EVQLVESGGGVVQPGRSLRLSCAVSGFTFSTSPLHWVRQAPGKGLEWVAVSSFVATDKYYADSVKGRFTVSRDNSKNTLYLQMNSLRPEDTAVYYCARGFGELPGFDIWGQGTMVTVSS VL: SYVLTQPPSASGSPGQSVTISCTGTSSDFGGYNYVSWYQQHPGKAPKLMVYEVAKRPSGVPDRFSGSKSGNTASLTVSGLQAEDEADYYCSSYAGSNNFVVFGGGTKLTVL | 1.53 nM
ADI-46739 (antibody, V domains shown, full-length IgG; also called Antibody Number 124) VH: EVQLVESGPGLVKPSGTLSLTCAVSGGSISSDNWWSWVRQAPGKGLEWIGEIYHTGSTSYNPSLKSRVTISLDKSKNHFSLKLNSLTAADTAVYYCAGKKWELLGFRFDPWGQGTLVTVSS VL: NFMLTQPPSVSAAPGQKVTISCSGSNSNIGNNFVSWYQQLPGTAPKLLIYDNNERPSGIPDRFSGSKSVTSATLGITGLQTGDEADYYCGTWDNSLGMVVFGGGTKLTVL | > 100 nM
ADI-49037 (antibody, V domains shown, full-length IgG) VH: EVQLVESGGGVVQPGRSLRLSCAASGFTLSSYVMHWVRQAPGKGLEWVAVISSDGTNKYYADSVKGRFTISRDSSKNTLYLQMNSLRPEDSAVYYCARGQPDYWGQGTLVTVSS VL: EIVLTQSPATLSLSPGERATLSCRASQSVSNYFAWYQQKPGQAPRLLIYGASNRATGVPARFSGSGSGTDFTLTISSLEPEDFAVYYCQQRSNWPYTFGQGTKVEIK | 3.53 nM
ADI-42817 (antibody, V domains shown, full-length IgG) VH: QVTLKESGPTLVKPTQTLTLTCTFSGFSLSTSGVGVGWTRQPPGKALEWLALIYWDDDKRYSPSLKSRLTITKDTSKNQVVLTMTKMDPVDTATYYCAHRHIAARLYRDDDVFDVWGQGTMVTVSS VL: not shown | 4.15 nM
ADI-50537 (antibody, V domains shown, full-length IgG; also called Antibody Number 139) VH: QVQLVQSGSELKKPGASVKVSCKASGYTFTSYAMNWVRQAPGQGLEWMGWINTNTGNPTYAQGFTGRFVFSLDTSVSTAYLQISSLKAEDTAVYYCARGYCSSTSCYGGLYWFDPWGQGTLVTVSS VL: not shown | > 100 nM
ADI-49032 (antibody, V domains shown, full-length IgG; also called Antibody Number 119) VH: EVQLVQSGGGLVQPGGSLRLSCVGSGLTLSSSAMSWVRQAPGKGLECVSGITGSGSDSSYAASVKGRFTISRDNSKNTVYLQMNSLRAEDTAVYYCAKDLTHRLGSIFGKLTFDAFDIWGPGTMVTVSS VL: DIRLTQSPSTLSASVGDRVTITCRASQSISGWLAWYQQKPGKAPKLLIYKASILESGVPSRFSGSQSGTEFTLTISSLQPDDFATYYCQQYNNFWTFGQGTKLEIK | 0.486 nM
ADI-46737 (antibody, V domains shown, full-length IgG; also called Antibody Number 140) VH: QVQLVQSGGGVVQPGRSLRLSCAASGFTFSSYAMHWVRQAPGKGLEWVAVISYDGSNKYYADSVKGRFTISRDNSKNTLYLQMNSLRAEDTAVYYCARDGAGDYIWGSYRHKGLHYYYGMDVWGQGTTVTVSS VL: DIQLTQSPSSLSASVGDRVTITCRASQGIRNDLGWYQQKPGKAPKRLIYAASSLQSGVPSRFSGSGSGTEFTLTISSLQPEDFATYYCLQHNSYPLTFGGGTKVEIK | > 100 nM
ADI-42810 (antibody, V domains shown, full-length IgG) VH: QVQLVESGAEEKKPGASVKVSCKASGYTFTSYAMHWVRQAPGQRLEWMGWINAGNGNTKYSQKFQGRVTITRDTSASTAYMELSSLRSEDTAVYYCARQWLGHFDYWGQGTLVTVSS VL: QSALTQPASVSGSPGQSITISCTGTSSDVGGYNYVSWYQQHPGKAPKLMIYEVSNRPSGVSNRFSGSKSGNTASLTISGLQAEDEADYYCSSYTSSSTYVFGTGTKVTVL | > 100 nM
ADI-42206 (antibody, V domains shown, full-length IgG; also called Antibody Number 132) VH: QVQLVQSGGGLVQPGGSLRLSCAASGFTFSDHYMDWVRQAPGKGLEWVGRIRNKVNSYTTEYAASVKGRFTISRDDSKNSLYLQMNSLKTEDTAVYYCGRDRGWLDIWGQGTMVTVSS VL: QSVLTQPASVSGSPGQSITISCTGTSSDVGGYNYVSWYQQHPGKAPKLMIYDVTNRPSGVSNRFSGSRSGNTASLTISGLQAEDEADYYCSSYTRSSTRVFGGGTKLTVL | 1.73 nM
ADI-48969 (antibody, V domains shown, full-length IgG; also called Antibody Number 12) VH: QVTLKESGGALVKPAGSLTLSCAASGFTFGDYYMSWIRQAPGKGLEWISYISSSGSSIYYTDSVRGRFTISRDNARNSLYLQMNSLRVEDTAVYYCAREFSSRPFDLWGQGTLVTVSS VL: QSVLTQPRSVSGSPGQSVTISCTGTSSDVGAYNFVSWYQQYPGKAPKLMIYDVNKRPSGVPDRFSGSKSGNTASLTISGLQAEDEADYHCCSYAGTYTSNYVFGSGTKVTVL | 5.86 nM
ADI-50197 (antibody, V domains shown, full-length IgG; also called Antibody Number 120) VH: EVQLVESGGGVVQPGRSLRLSCAASGFTFSSYGMHWVRQAPGKGPEWVAVISEDGNKDHYVDSVKGRFSIYRDNSKSTVFLRMTSLRAEDTAVYYCAKDLTPYFYDSGAFDHWGQGTLVTVSS VL: QSVLTQPPSVSGAPGQRVTISCTGNSSNIGAGYEVHWYQQLPGTAPKLLIYGNNNRPSGVPDRFSGSKSGASGSLAVTGLRAEDEADYYCHSYDSNMSGSVFGGGTKVTVL | > 100 nM
ADI-46724 (antibody, V domains shown, full-length IgG; also called Antibody Number 133) VH: QVQLQESGPGLVEPSGTLSLTCVVTGDSISSRSWWSWVRQPPGKGLEWIGEIYHSGTTTYSPSLKSRVIISLDKSENHFSLKMTSVTAADTAVYYCARVIRDLRDYYDGSGYGPDAFDIWGQGTTVTVSS VL: QPVLTQPPSVSAAPGQKVTISCSGSSSNIGSNFVSWYQQFPGTAPKLLIYDDNKRPSGIPDRFSGSKSGTSATLGITGLQTGDEADYYCETWDSRLSVVFGGGTKLTVL | > 100 nM
ADI-49137 (antibody, V domains shown, full-length IgG; also called Antibody Number 126) VH: EVQLVESGGGLVQPGGSLRLSCAASGFIFSDHYMAWVRQAPGKGLEWVGHVGNKANTYTTEYAASVKGRFTISRDDSKKSLYLQMNRLKSEDTAVYYCARVFSYYLDYWGQGTPVTVSS VL: EIVLTQSPGTLALSPGERATLSCRASQSVSSYLAWYQQKPGQAPRLLIYDSSNRATGIPARFSGSGSGTDFTLTISSLEPEDFAVYYCQQPGNWPPAFTFGGGTKLEIK | 0.854 nM
ADI-42186 (antibody, V domains shown, full-length IgG; also called Antibody Number 130) VH: QVQLQQSGPGLVKPSQTLSLTCAISGDSVSTNSAAWNWIRQSPSRGLEWLGRTYYRSKWYNDYALSVKSRITIKPDTSKNQFSLQLNSVTPEDTAVYYCAREGAGYYDSSGYYPLSYDAFDIWGRGTMVTVSS VL: not shown | 1.21 nM
ADI-48890 (antibody, V domains shown, full-length IgG) VH: EVQLVESGGGLVQPGGSLRLSCAASGFTFSDHYMDWVRQAPGKGLEWVGRARNRANSYTTEYAASVKGRFAASRDDSKNSLYLQMNSLKTEDTAVYYCARVRGSYWDYWGQGTLVTVSS VL: QSALTQPPSASGSPGQSVTISCTGTSSDVGGYNYVSWYQQHPGKAPKLMIYEVSKRPSGVPDRFSGSKSGNTASLTVSGLQAEDEADYYCSSFAGSNNLYVFGTGTKVTVL | > 100 nM
ADI-48951 (antibody, V domains shown, full-length IgG; also called Antibody Number 138) VH: EVQLLESGPGLVKPSGTLSLTCAVSGASISSNNWWSWVRQSPGKGLEWIGEIFHSGTTNYNPSLKSRVTISVDKSKNQFSLKLNSVTAADTAVYYCARDVGVAAVITGSVRWGQGTLVTVSS VL: DIVLTQSPDSLAVSLGERAAINCKSSQSVFFSSDNKNYLAWYQQKPGQPPKLLIYWASTRESGVPDRFSGSGSGTDFTLTISSLQAEDVAVYYCQQFYTTPSTFGQGTKVEIK | 2.67 nM
ADI-42217 (antibody, V domains shown, full-length IgG) VH: EVQLVESGGGVVQPGRSLRLSCADSGFTFSYSAIHWVRQAPGKGLEWVAVISYDGSNKYYADSVKGRFTISRDNSKNTLYLQMNSLRPEDTAVYYCARHSGGYSSKDKPTEYFQHWGQGTLVTVSS VL: QSVLTQPPSVSGAPGQRVTISCTGSSSDIGAGYDVHWYQQLPGTAPKLLIYGNTNRPSGVPDRFSGSKSGTSASLAITGLQAEDEADYYCQSYDSSLSGVVFGGGTKLTVL | 4 nM
ADI-42226 (antibody, V domains shown, full-length IgG) VH: EVQLLESGGGLVQPGGSLRLSCAASGFIFSDHYMDWVRQAPGKGLEWVGRIRNKPNSYTTDYAAYVKGRFSISRDDSKNSLFLQMNSLKTEDTAVYYCARVVNGLDVWGQGTTVTVSS VL: SYELTQPPSVSVSPGQTARITCSGDALPKQYAYWYQQKPGQAPVLVIYKDTERPSGIPERFSGSSSGTTVTLTISGVQAEDEADYYCQSADSSVADSSVVFGGGTKLTVL | 0.843 nM
ADI-48900 (antibody, V domains shown, full-length IgG; also called Antibody Number 13) VH: EVQLQESGPGLVKPSGTLSLTCAVSGGSISSSDWWSWVRQPPGKGLEWIGEIYHSGSTSYNPSVKSRVSISVDKSKNQFSLQLSSVTAADTAIYYCARVNPPQYSSGWYSVYWGQGTLVTVSS VL: QSVVTQPPSVSAAPGQKVTISCSGSSSNIGNNYVSWYQQLSETAPKLLIYDNNKRPSGIPNRFSGSKSGTSATLGITGLQTGDEADYYCGTWDNSLGAVVFGGGTKVTVL | 26.2 nM
ADI-50539 (antibody, V domains shown, full-length IgG; also called Antibody Number 134) VH: EVQLVESGPGLVKPSGTLSLTCAVSGGSISSSNWWSWVRQPPGKGLEWIGEIYHSGSTNYNPSLKSRVTISVDKSKNQFSLKLSSVTAADTAVYYCARARWEDGNYYYGMDVWGQGTTVTVSS VL: QPVLTQPPSVSAAPGQKVTISCSGSSSNIGNNYVSWYQQLPGTAPKLLIYDNNKRPSGIPDRFSGSKSGTSATLGITGLQTGDEADYYCGTWDSSLSAVVFGGGTKVTVL | > 100 nM
ADI-48894 (antibody, V domains shown, full-length IgG) VH: EVQLVESGGGLVQPGGSLRLSCAVSGFTFSDHYMDWVRQAPGKGLEWVGRSRNKVNSYITEYAASVKGRFSISRDDSKNSLYLQMNSLKIEDTAVYYCARVFGGPTDYWGQGTLVTVSS VL: EIVLTQSPSSLSASVGDRVTITCRASQGISNYLAWYQQKPGKAPKLLIYAASTLQSGVPSRFSGSGSGTDFILTISSLQPEDVATYYCQKYYSAPLITFGPGTKVEIK | 95.6 nM
ADI-50218 (antibody, V domains shown, full-length IgG; also called Antibody Number 128) VH: QVQLVQSGAEVKKPGASVKVSCKASGYTFTSYDINWVRQATGQGLEWMGWMNPNSGNTGYAQKFQGRVTMTRNTSISTAYMELSSLRSEDTAVYYCARGLNTVTNSDYWGQGTLVTVSS VL: DIQLTQSPSSVSASVGDRVTITCRASQGISSWLAWYQQKPGKAPKLLIYAASSLQSGVPSRFSGSGSGTDFTLTISSLQPEDFATYYCQQANSFPWTFGQGTKVDIK | > 100 nM
ADI-42178 (antibody, V domains shown, full-length IgG) VH: EVQLVESGGGVIQPGRSLRLSCAASGFNFSSYGMHWVRQAPGKGLEWVAVISYDGSNKYYADSVKGRFTISRDNSKNTLYLQMNSLRAEDTAVHYCAKAYDSRGYYYLDYWGQGTLVTVSS VL: DIQLTQSPSTLSASVGDRVTITCRASQSISDWLAWFQQKPGKAPKLLIYRASGLETGVPSRFSGSGSGTEFTLTISSLQPDDFATYYCQQYNRYSYTFGQGTKVEIK | 34.4 nM

Source: patent publication US20240218054A1 (MABLOC, published 2024)
